# Tested on: Escherichia coli TOP10
# Assay: shrunken log2 fold change of peptide-encoding DNA abundance (4.5 h post-induction vs induction); higher = less antimicrobial activity (less host growth inhibition)
# Conditions: time post-induction: 4.5 h; library: site-saturation at positions 5, 18, 19, 20
# 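Also: peptides expressed intracellularly from a pBAD plasmid library in pooled LB shake-flask culture, induced with 0.3% L-arabinose, DNA abundance read by NGS, three biological replicates, DESeq2 with apeglm shrinkage.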
row,Sequence,shrunken log2 fold change
1,RRIRERPPRLPRPRPRPWWPPRP,-0.155
2,RRIRCRPPRLPRPRPRPPLHPRP,0.135
3,RRIRWRPPRLPRPRPRPCPFPRP,-0.646
4,RRIRSRPPRLPRPRPRPWGYPRP,-0.226
5,RRIRTRPPRLPRPRPRPSNRPRP,-0.0802
6,RRIRGRPPRLPRPRPRPASAPRP,0.818
7,RRIRIRPPRLPRPRPRPWQVPRP,0.0844
8,RRIRPRPPRLPRPRPRPSYPPRP,-0.181
9,RRIRTRPPRLPRPRPRPPYDPRP,-0.398
10,RRIRLRPPRLPRPRPRPGKAPRP,0.0651
11,RRIRCRPPRLPRPRPRPCMQPRP,-0.345
12,RRIRVRPPRLPRPRPRPFIAPRP,-0.448
13,RRIRDRPPRLPRPRPRPDLSPRP,0.0253
14,RRIRMRPPRLPRPRPRPECQPRP,3.29
15,RRIRLRPPRLPRPRPRPVITPRP,-0.372
16,RRIRSRPPRLPRPRPRPLCVPRP,-0.143
17,RRIRHRPPRLPRPRPRPAEIPRP,0.000898
18,RRIRHRPPRLPRPRPRPWSFPRP,0.0231
19,RRIRSRPPRLPRPRPRPIFVPRP,0.0197
20,RRIRERPPRLPRPRPRPFMSPRP,-0.0685
21,RRIRSRPPRLPRPRPRPFFKPRP,-0.192
22,RRIRHRPPRLPRPRPRPIGRPRP,-0.00982
23,RRIRQRPPRLPRPRPRPCYAPRP,-0.251
24,RRIRKRPPRLPRPRPRPVNFPRP,-0.0174
25,RRIRQRPPRLPRPRPRPCFTPRP,-0.684

row,Sequence,shrunken log2 fold change
1,RRIRGRPPRLPRPRPRPQWPPRP,0.475
2,RRIRKRPPRLPRPRPRPCASPRP,0.0419
3,RRIRKRPPRLPRPRPRPTWVPRP,-0.105
4,RRIRERPPRLPRPRPRPNSVPRP,0.0407
5,RRIRHRPPRLPRPRPRPFCAPRP,0.076
6,RRIRNRPPRLPRPRPRPHCNPRP,-0.196
7,RRIRDRPPRLPRPRPRPIGAPRP,-0.173
8,RRIRVRPPRLPRPRPRPEKRPRP,-0.218
9,RRIRRRPPRLPRPRPRPPANPRP,0.731
10,RRIRNRPPRLPRPRPRPPAWPRP,0.369
11,RRIRYRPPRLPRPRPRPRALPRP,0.0114
12,RRIRFRPPRLPRPRPRPMPNPRP,0.0592
13,RRIRLRPPRLPRPRPRPALEPRP,0.155
14,RRIRWRPPRLPRPRPRPTVTPRP,0.0889
15,RRIRRRPPRLPRPRPRPPLGPRP,0.998
16,RRIRFRPPRLPRPRPRPMGYPRP,-0.226
17,RRIRRRPPRLPRPRPRPVEPPRP,-0.0837
18,RRIRTRPPRLPRPRPRPMTMPRP,-0.223
19,RRIRDRPPRLPRPRPRPQLTPRP,0.0489
20,RRIRLRPPRLPRPRPRPCAQPRP,-0.161
21,RRIRTRPPRLPRPRPRPHCGPRP,-0.0402
22,RRIRDRPPRLPRPRPRPHDDPRP,0.014
23,RRIRLRPPRLPRPRPRPCAVPRP,-0.00495
24,RRIRKRPPRLPRPRPRPESPPRP,0.188
25,RRIRERPPRLPRPRPRPLVQPRP,0.0736

row,Sequence,shrunken log2 fold change
1,RRIRMRPPRLPRPRPRPQTAPRP,0.524
2,RRIRARPPRLPRPRPRPDNLPRP,-0.0846
3,RRIRMRPPRLPRPRPRPFEQPRP,0.0263
4,RRIRIRPPRLPRPRPRPETKPRP,0.0233
5,RRIRVRPPRLPRPRPRPFDTPRP,-0.847
6,RRIRMRPPRLPRPRPRPFWPPRP,1.3
7,RRIRIRPPRLPRPRPRPCINPRP,-0.355
8,RRIRDRPPRLPRPRPRPNFEPRP,0.282
9,RRIRVRPPRLPRPRPRPDCQPRP,0.00516
10,RRIRWRPPRLPRPRPRPITIPRP,-0.162
11,RRIRARPPRLPRPRPRPKPCPRP,0.162
12,RRIRCRPPRLPRPRPRPPQTPRP,0.665
13,RRIRGRPPRLPRPRPRPLGCPRP,1.27
14,RRIRKRPPRLPRPRPRPCRAPRP,0.57
15,RRIRHRPPRLPRPRPRPWHFPRP,-0.0331
16,RRIRCRPPRLPRPRPRPKEFPRP,0.0238
17,RRIRIRPPRLPRPRPRPDARPRP,0.262
18,RRIRIRPPRLPRPRPRPSHMPRP,-0.425
19,RRIRCRPPRLPRPRPRPTLGPRP,0.168
20,RRIRLRPPRLPRPRPRPCMDPRP,-0.351
21,RRIRLRPPRLPRPRPRPFQTPRP,-0.0347
22,RRIRHRPPRLPRPRPRPSNSPRP,-0.798
23,RRIRCRPPRLPRPRPRPRNSPRP,-0.113
24,RRIRWRPPRLPRPRPRPIQHPRP,0.00853
25,RRIRARPPRLPRPRPRPEGIPRP,0.0659

row,Sequence,shrunken log2 fold change
1,RRIRLRPPRLPRPRPRPFGFPRP,-0.15
2,RRIRTRPPRLPRPRPRPSTFPRP,-0.49
3,RRIRSRPPRLPRPRPRPWDEPRP,-0.0358
4,RRIRHRPPRLPRPRPRPSNFPRP,-0.108
5,RRIRWRPPRLPRPRPRPATAPRP,0.983
6,RRIRERPPRLPRPRPRPNDAPRP,-0.19
7,RRIRERPPRLPRPRPRPYIDPRP,-1.51
8,RRIRQRPPRLPRPRPRPECVPRP,0.386
9,RRIRTRPPRLPRPRPRPMPPPRP,0.0692
10,RRIRGRPPRLPRPRPRPQYDPRP,0.101
11,RRIRCRPPRLPRPRPRPKSLPRP,-0.191
12,RRIRIRPPRLPRPRPRPEVDPRP,-0.0435
13,RRIRGRPPRLPRPRPRPQVVPRP,0.0944
14,RRIRCRPPRLPRPRPRPSSEPRP,-0.284
15,RRIRARPPRLPRPRPRPPDWPRP,1.23
16,RRIRKRPPRLPRPRPRPRFCPRP,0.554
17,RRIRHRPPRLPRPRPRPYEAPRP,-0.445
18,RRIRVRPPRLPRPRPRPETTPRP,0.348
19,RRIRNRPPRLPRPRPRPTIHPRP,-0.46
20,RRIRNRPPRLPRPRPRPSRVPRP,0.0304
21,RRIRFRPPRLPRPRPRPKKDPRP,0.184
22,RRIRYRPPRLPRPRPRPCFVPRP,-1.09
23,RRIRNRPPRLPRPRPRPHDCPRP,-0.124
24,RRIRLRPPRLPRPRPRPDKHPRP,-0.971
25,RRIRKRPPRLPRPRPRPDSQPRP,0.0697

row,Sequence,shrunken log2 fold change
1,RRIRYRPPRLPRPRPRPHQGPRP,-0.142
2,RRIRFRPPRLPRPRPRPMRGPRP,0.664
3,RRIRARPPRLPRPRPRPPIFPRP,0.25
4,RRIRPRPPRLPRPRPRPFAKPRP,0.0716
5,RRIRARPPRLPRPRPRPAGFPRP,0.365
6,RRIRNRPPRLPRPRPRPFGNPRP,0.0247
7,RRIRIRPPRLPRPRPRPVAYPRP,-0.0713
8,RRIRERPPRLPRPRPRPNMRPRP,0.131
9,RRIRERPPRLPRPRPRPCAVPRP,-0.0406
10,RRIRIRPPRLPRPRPRPFFTPRP,-0.312
11,RRIRFRPPRLPRPRPRPFMLPRP,-0.66
12,RRIRLRPPRLPRPRPRPRHCPRP,0.232
13,RRIRYRPPRLPRPRPRPHHQPRP,-1.06
14,RRIRHRPPRLPRPRPRPAFMPRP,-0.193
15,RRIRYRPPRLPRPRPRPVFKPRP,-0.238
16,RRIRPRPPRLPRPRPRPITHPRP,-0.117
17,RRIRYRPPRLPRPRPRPRLPPRP,-0.0393
18,RRIRIRPPRLPRPRPRPQNMPRP,-0.235
19,RRIRCRPPRLPRPRPRPPRTPRP,0.818
20,RRIRFRPPRLPRPRPRPTARPRP,0.336
21,RRIRNRPPRLPRPRPRPPMSPRP,-0.0527
22,RRIRIRPPRLPRPRPRPDEGPRP,-0.22
23,RRIRDRPPRLPRPRPRPLGWPRP,0.366
24,RRIRFRPPRLPRPRPRPDGFPRP,0.015
25,RRIRERPPRLPRPRPRPSREPRP,0.125

# Source: the supplement of paper PMC9112550, “Optimization of the antimicrobial peptide Bac7 by deep mutational scanning” (BMC Biology, 2022)
